Experimental data from the supplement of paper PMC7877785.
± gives the uncertainty stated by the source.

Test: self-splicing fitness, log relative to wild type (ln ratio); higher = more splicing; Tetrahymena group I intron in knt gene, E. coli kanamycin selection, DiMSum; sequences stand for … in CUCUCU…GGAGGGAAAAGUUAUCAGGCAUGCACCUGGUAGCUAGUCUUUAAACCAAUAGAUUGCAUCGGUUUAAAAGGCAAGACCGUCAAAUUGCGGGAAAGGGGUCAACAGCCGUUCAGUACCAAGUCUCAGGGGAAACUUUGAGAUGGCCUUGCAAAGGGUAUGGUAAUAAGCUGACGGACAUGGUCCUAACCACGCAGCCAAGUCCUAAGUCAACAGAUCUUCUGUUGAUAUGGAUGCAGUUCACAGACUAAAUGUCGGUCGGGGAAGAUGUAUUCUUCUCAUAAGAUAUAGUCGGACCUCUCCUUAAUGGGAGCUAGCGGAUGAAGUGAUGCAACACUGGAGCCGCUGGGAACUAAUUUGUAUGCGAAAGUAUAUUGAUUAGUUUUGGAGUACUCGUGGUCG
How it was run: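 Library with all eight P1ex-region intron nucleotides randomised, intron inside the knt kanamycin-resistance gene on pET-22b(+), in E. coli BL21(DE3). Cells grew overnight at 37°C or 30°C on LB agar with or without 25 μg/mL kanamycin (plus 100 μg/mL carbenicillin, 50 μM IPTG, 0.2% rhamnose), in six replicate transformations. Pooled colonies were amplicon-sequenced on Illumina HiSeq 2500. DiMSum fitness is the error-weighted combination of wild-type-normalised replicate fold changes, kanamycin versus none.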

| Sequence | self-splicing fitness (ln) (30 °C) | self-splicing fitness (ln) (37 °C) |
| --- | --- | --- |
| GGCUAGCAAUAUUACGCACC | -1.61 ± 0.24 | -1.78 ± 0.26 |
| GGCUAGCAAUAUUACGCAUA | 0.253 ± 0.13 | 0.0704 ± 0.15 |
| GGCUAGCAAUAUUACGCCAU | -2.23 ± 0.22 |  |
| GGCUAGCAAUAUUACGCGGU | -2.92 ± 0.38 | -3.63 ± 0.24 |
| GGCUAGCAAUAUUACGCUCG | -2.15 ± 0.24 | -0.647 ± 0.19 |
| GGCUAGCAAUAUUACGGAGU | -2.86 ± 0.1 | -2.02 ± 0.13 |
| GGCUAGCAAUAUUACGGCAU | -0.0766 ± 0.11 | 0.833 ± 0.13 |
| GGCUAGCAAUAUUACGGCCU | -3.3 ± 0.35 |  |
| GGCUAGCAAUAUUACGGUAA | -0.655 ± 0.15 | -0.0661 ± 0.14 |
| GGCUAGCAAUAUUACGGUUU | 0.173 ± 0.078 | 0.305 ± 0.09 |
| GGCUAGCAAUAUUACGUCAA | -1.34 ± 0.11 | -0.747 ± 0.12 |
| GGCUAGCAAUAUUACGUCCA | -1.3 ± 0.18 | -1.05 ± 0.2 |
| GGCUAGCAAUAUUACGUCCG | -2.88 ± 0.3 | -0.381 ± 0.17 |
| GGCUAGCAAUAUUACGUUUC | -0.818 ± 0.11 | -0.182 ± 0.12 |
| GGGAAGCAAUAUUACGAAUA |  | -1 ± 0.2 |
| GGGAAGCAAUAUUACGACUU | 0.323 ± 0.11 | -0.202 ± 0.15 |
| GGGAAGCAAUAUUACGAGAC | -1.98 ± 0.26 | -2.1 ± 0.34 |
| GGGAAGCAAUAUUACGAGCA | -2.18 ± 0.32 | -0.522 ± 0.18 |
| GGGAAGCAAUAUUACGAUCG | 0.00926 ± 0.13 | -0.00218 ± 0.13 |
| GGGAAGCAAUAUUACGAUUU | -0.13 ± 0.1 | -0.16 ± 0.12 |

| Sequence | self-splicing fitness (ln) (30 °C) | self-splicing fitness (ln) (37 °C) |
| --- | --- | --- |
| GGGAAGCAAUAUUACGCGUG | -1.02 ± 0.076 | -0.978 ± 0.096 |
| GGGAAGCAAUAUUACGGACA | -0.34 ± 0.087 | -0.0303 ± 0.13 |
| GGGAAGCAAUAUUACGGGGC | -2.85 ± 0.34 |  |
| GGGAAGCAAUAUUACGGUAU | -2.78 ± 0.18 | -1.63 ± 0.15 |
| GGGAAGCAAUAUUACGGUUU | -1.89 ± 0.099 | -1.07 ± 0.1 |
| GGGAAGCAAUAUUACGUAUC | -1.43 ± 0.074 | -1.03 ± 0.11 |
| GGGAAGCAAUAUUACGUGAG | -0.751 ± 0.12 | -1.46 ± 0.12 |
| GGGAAGCAAUAUUACGUGUA | -1.96 ± 0.14 | -0.669 ± 0.11 |
| GGGCAGCAAUAUUACGAGAG | -4.06 ± 0.17 | -2.82 ± 0.16 |
| GGGCAGCAAUAUUACGAUCU | -0.541 ± 0.092 | 0.124 ± 0.12 |
| GGGCAGCAAUAUUACGAUUG | -3.83 ± 0.4 | -2.84 ± 0.27 |
| GGGCAGCAAUAUUACGCCAA | -0.582 ± 0.19 | -0.176 ± 0.24 |
| GGGCAGCAAUAUUACGCCAC | -3.34 ± 0.37 | -1.22 ± 0.38 |
| GGGCAGCAAUAUUACGCCCA | -2.18 ± 0.48 | -1.26 ± 0.32 |
| GGGCAGCAAUAUUACGCGAC | -2.37 ± 0.13 | -2.17 ± 0.21 |
| GGGCAGCAAUAUUACGCGCA | -0.298 ± 0.13 | -0.184 ± 0.13 |
| GGGCAGCAAUAUUACGCUAA | -0.45 ± 0.087 | 0.361 ± 0.14 |
| GGGCAGCAAUAUUACGGCUA | -0.49 ± 0.13 | 0.227 ± 0.14 |
| GGGCAGCAAUAUUACGGCUU | -0.964 ± 0.15 | -1.14 ± 0.16 |
